Data on 1 molecule can be found in patent US20170319655A1 (UNIVERSITY OF MARYLAND BALTIMORE, published 2017).

Assay [1] addresses T1, MUC1-ED on Ad-NEU1-infected airway epithelial cells (A549 cells; SAECs), desialylated by overexpressed NEU1 (human, UniProt P15941 24-1255, glycans desialylated by overexpressed NEU1).
T1 construct: Endogenous MUC1 of human airway ECs that overexpress NEU1; also called Ad-NEU1-infected ECs
Put plainly: Scatchard transformation of Alexa Fluor 594-flagellin binding to A549 cells.

Assay [2] has as its target T2, MUC1-ED on Ad-GFP-infected airway epithelial cells (A549 cells; SAECs) (human, UniProt P15941 24-1255, endogenous sialylated glycans (alpha2,3- and alpha2,6-linked sialic acid)).
T2 construct: Endogenous MUC1 of human airway ECs; also called Ad-GFP-infected ECs
Description: Alexa Fluor 594-flagellin binding to Ad-GFP-infected A549 cells, 40 min at 4 C, fluorometry, Scatchard transformation; receptor named by the filing as MUC1-ED.

The target of assay [3] is T1, MUC1-ED on Ad-NEU1-infected airway …. Description: Alexa Fluor 594-flagellin binding to Ad-NEU1-infected A549 cells, 40 min at 4 C, fluorometry, Scatchard transformation; receptor named by the filing as MUC1-ED.

T1 sequence (P15941 24-1255 limits assumed): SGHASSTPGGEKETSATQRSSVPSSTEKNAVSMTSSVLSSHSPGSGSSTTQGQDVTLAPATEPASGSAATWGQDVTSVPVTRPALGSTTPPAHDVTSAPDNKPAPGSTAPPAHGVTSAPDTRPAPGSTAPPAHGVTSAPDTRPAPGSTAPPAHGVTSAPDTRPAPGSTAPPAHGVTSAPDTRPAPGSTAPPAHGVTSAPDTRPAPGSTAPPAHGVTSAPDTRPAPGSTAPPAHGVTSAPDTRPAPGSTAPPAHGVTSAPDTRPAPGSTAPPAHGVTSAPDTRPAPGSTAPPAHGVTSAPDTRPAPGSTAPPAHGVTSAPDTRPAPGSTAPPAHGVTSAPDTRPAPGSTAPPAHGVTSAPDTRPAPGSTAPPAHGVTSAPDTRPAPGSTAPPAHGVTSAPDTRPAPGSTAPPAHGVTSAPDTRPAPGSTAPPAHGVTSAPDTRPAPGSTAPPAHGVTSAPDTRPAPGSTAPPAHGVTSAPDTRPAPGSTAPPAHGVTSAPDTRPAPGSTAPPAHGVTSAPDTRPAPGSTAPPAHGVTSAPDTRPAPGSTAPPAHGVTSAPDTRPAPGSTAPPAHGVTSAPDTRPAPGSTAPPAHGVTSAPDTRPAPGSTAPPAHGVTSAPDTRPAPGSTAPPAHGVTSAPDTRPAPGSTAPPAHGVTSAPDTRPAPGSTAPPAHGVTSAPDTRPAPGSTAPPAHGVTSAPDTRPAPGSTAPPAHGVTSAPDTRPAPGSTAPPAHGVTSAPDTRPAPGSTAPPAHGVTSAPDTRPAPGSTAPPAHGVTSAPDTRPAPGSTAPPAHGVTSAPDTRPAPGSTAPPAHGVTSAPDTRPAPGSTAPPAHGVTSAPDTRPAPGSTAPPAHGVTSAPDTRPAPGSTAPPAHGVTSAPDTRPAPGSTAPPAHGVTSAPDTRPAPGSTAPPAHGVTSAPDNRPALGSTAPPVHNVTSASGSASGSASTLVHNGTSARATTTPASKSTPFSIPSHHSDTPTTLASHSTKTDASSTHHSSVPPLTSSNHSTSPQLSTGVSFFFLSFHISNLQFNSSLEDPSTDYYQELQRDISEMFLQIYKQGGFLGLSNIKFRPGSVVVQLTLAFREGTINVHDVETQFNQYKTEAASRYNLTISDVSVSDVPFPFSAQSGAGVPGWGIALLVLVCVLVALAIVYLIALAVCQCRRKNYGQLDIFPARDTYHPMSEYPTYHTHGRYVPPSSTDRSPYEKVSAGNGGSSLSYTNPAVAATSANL
T2 sequence (P15941 24-1255 limits assumed): as above

B1: Pseudomonas aeruginosa (Pa) flagellin purified from Pa strain PA01, Alexa Fluor 594-labeled (ligand)
chain: MALTVNTNIASLNTQRNLNASSNDLNTSLQRLTTGYRINSAKDDAAGLQISNRLSNQISGLNVATRNANDGISLAQTAEGALQQSTNILQRIRDLALQSANGSNSDADRAALQKEVAAQQAELTRISDTTTFGGRKLLDGSFGTTSFQVGSNAYETIDISLQNASASAIGSYQVGSNGAGTVASVAGTATASGIASGTVNLVGGGQVKNIAIAAGDSAKAIAEKMDGAIPNLSARARTVFTADVSGVTGGSLNFDVTVGSNTVSLAGVTSTQDLADQLNSNSSKLGITASINDKGVLTITSATGENVKFGAQTGTATAGQVAVKVQGSDGKFEAAAKNVVAAGTAATTTIVTGYVQLNSPTAYSVSGTGTQASQVFGNASAAQKSSVASVDISTADGAQNAIAVVDNALAAIDAQRADLGAVQNRFKNTIDNLTNISENATNARSRIKDTDFAAETAALSKNQVLQQAGTAILAQANQLPQAVLSLLR
modifications: Alexa Fluor 594 label (site not stated)
notes: also called purified flagellin; Alexa Fluor 594-flagellin
Regarding B1, in assay [1], the “fold reduction in Kd against Ad-GFP-infected ECs” value came out at 2.9 fold. Besides, the results for the Kd in assay [2] and in assay [3] were 7.35 nM and 2.54 nM, respectively.

As a reminder, the Kd is the equilibrium constant for the complex coming apart. A lower Kd goes with a tighter complex.
